Experimental findings from PMC9843812, “The ybcF Gene of Escherichia coli Encodes a Local Orphan Enzyme, Catabolic Carbamate Kinase” (Journal of Microbiology and Biotechnology, 2022) are described below.

Substrate in data set [1]: Nc1ncnc2c1ncn2[C@@H]1O[C@H](COP(=O)(O)OP(=O)(O)O)[C@@H](O)[C@H]1O
Put plainly: ATP formation measured by firefly luciferase luminescence, Michaelis-Menten / Lineweaver-Burk. The data set is classed as biochemical, Escherichia coli. The note with it: 2 mM CP fixed, ADP 0-3 mM, 30 mM MgCl2, 20 mM Tris-Cl pH 8, 28 °C, 60 min, 100 nM enzyme.

Substrate in data set [2]: NC(=O)OP(=O)(O)O
Described as above. The following applies: 2 mM ADP fixed, CP 0-3 mM, 30 mM MgCl2, 20 mM Tris-Cl pH 8, 28 °C, 60 min, 100 nM enzyme. The data set is classed as biochemical, Escherichia coli.

B1: YbcF (catabolic carbamate kinase, CK; proposed AllK) (Escherichia coli K-12) (protein)
chain: MKTLVVALGGNALLQRGEALTAENQYRNIASAVPALARLARSYRLAIVHGNGPQVGLLALQNLAWKEVEPYPLDVLVAESQGMIGYMLAQSLSAQPQMPPVTTVLTRIEVSPDDPAFLQPEKFIGPVYQPEEQEALEAAYGWQMKRDGKYLRRVVASPQPRKILDSEAIELLLKEGHVVICSGGGGVPVTDDGAGSEAVIDKDLAAALLAEQINADGLVILTDADAVYENWGTPQQRAIRHATPDELAPFAKADGSMGPNVTAVSGYVRSRGKPAWIGALSRIEETLAGEAGTCISL
For B1, the results for the Km in data set [1] and in data set [2] were 430 µM and 470 µM, respectively.
